Reference: patent US20180273626A1 (Stanford University, published 2018)
Positions count from the first letter of the chain named. In names and notes the source's numbering stands.

B1: IgE-R419N-Fc3-4 (other)
chain: CADSNPRGVSAYLSRPSPFDLFIRKSPTITCLVVDLAPSKGTVNLTWSRASGKPVNHSTRKEEKQRNGTLTVTSTLPVGTRDWIEGETYQCNVTHPHLPRALMRSTTKTSGPRAAPEVYAFATPEWPGSRDKRTLACLIQNFMPEDISVQWLHNEVQLPDARHSTTQPRKTKGSGFFVFSRLEVTRAEWEQKDEFICRAVHEAASPSQTVQRAVSVNP
modifications: additional N-linked glycan at N419 (Asn-92 of SEQ ID NO: 2)
notes: Mammalian derived (HEK-6E); biotinylated in the basophil exchange assays; also called R419N-IgE-Fc3-4; R419N mutant
B2: IgE-Fc3-4 (other)
chain: B1 chain with N92R
notes: Made both in insect cells (High Five) and in mammalian cells (HEK-6E); the mammalian protein, biotinylated, was used in the cell assays; also called wild-type IgE-Fc3-4; WT IgE-Fc3-4

Key:
[1] = biological target: T1, CD23 on B cells (human, UniProt P06734 1-321); assay: summary sentence of Example 1
T1 construct: whole, on cells; also called CD23 receptor; CD23+ B-cells
T1 sequence (looked up): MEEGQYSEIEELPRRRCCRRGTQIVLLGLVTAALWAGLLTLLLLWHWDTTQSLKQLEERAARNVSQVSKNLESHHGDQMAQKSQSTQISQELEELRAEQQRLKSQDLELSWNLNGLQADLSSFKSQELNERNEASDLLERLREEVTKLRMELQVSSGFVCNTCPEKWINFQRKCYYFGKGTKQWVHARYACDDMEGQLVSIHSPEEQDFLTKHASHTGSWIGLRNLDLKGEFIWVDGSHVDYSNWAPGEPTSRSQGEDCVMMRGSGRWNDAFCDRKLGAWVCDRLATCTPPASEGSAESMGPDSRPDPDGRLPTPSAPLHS

[2] = biological target: T2, FcεRI on primary human basophils (human, UniProt P12319 26-257); assay: flow cytometry on primary human basophils, anti-biotin staining
T2 construct: whole, on cells; on cells it stands with gamma chains (and a beta chain); also called FcεRIα on basophils; E2_79-treated basophils
T2 sequence (looked up): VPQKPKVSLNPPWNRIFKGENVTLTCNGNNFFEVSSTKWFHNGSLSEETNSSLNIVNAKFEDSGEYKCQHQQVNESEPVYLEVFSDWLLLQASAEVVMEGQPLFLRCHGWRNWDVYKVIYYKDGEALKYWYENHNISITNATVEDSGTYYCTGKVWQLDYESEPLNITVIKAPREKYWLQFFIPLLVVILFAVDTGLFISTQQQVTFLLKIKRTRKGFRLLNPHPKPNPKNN
Excerpt: (§1) Blood was drawn from two healthy volunteers and a third volunteer with a history of food allergy ranging in age from 21 to 37 (the protocol for this study was approved by the Institutional Review Board of Stanford University, and all informed consent was obtained from all subjects). Blood was collected in heparin vacutainer tubes (BD), and washed in 10 blood volumes of BF buffer (RPMI-1640 (Life Technologies) supplemented with 10% fetal calf serum (FCS; Gibco) and 1% penicillin/streptomycin (Gibco)). […] The following day cells were washed three times with BF buffer at 4° C. and stained for analysis.
(§2) Stained cells were then lysed with RBS lysis buffer (BioLegend) for 5 min at room temperature, and washed with FACS buffer (PBS pH 7.4 supplemented with 10% FCS). Data were collected on a DxP FACSCAN from Cytek Development in Fremont, Calif. (10 colors with three lasers—488, 639, 407) using FlowJo CE and analyzed using FlowJo (version 10).

[3] = biological target: T1, CD23 on B cells; assay: flow cytometry on CD23+ B cells
Excerpt: as §1, §2

Row | Binder | binding result [1] | binding result [2] | binding result [3]
1 | B1 | binds | binds | 
2 | B2 |  | binds | binds
